Source: publication PMC2950225

Target: T1, heat shock factor 1 (human (endogenous in HepG2)), Q00613
T1 chain: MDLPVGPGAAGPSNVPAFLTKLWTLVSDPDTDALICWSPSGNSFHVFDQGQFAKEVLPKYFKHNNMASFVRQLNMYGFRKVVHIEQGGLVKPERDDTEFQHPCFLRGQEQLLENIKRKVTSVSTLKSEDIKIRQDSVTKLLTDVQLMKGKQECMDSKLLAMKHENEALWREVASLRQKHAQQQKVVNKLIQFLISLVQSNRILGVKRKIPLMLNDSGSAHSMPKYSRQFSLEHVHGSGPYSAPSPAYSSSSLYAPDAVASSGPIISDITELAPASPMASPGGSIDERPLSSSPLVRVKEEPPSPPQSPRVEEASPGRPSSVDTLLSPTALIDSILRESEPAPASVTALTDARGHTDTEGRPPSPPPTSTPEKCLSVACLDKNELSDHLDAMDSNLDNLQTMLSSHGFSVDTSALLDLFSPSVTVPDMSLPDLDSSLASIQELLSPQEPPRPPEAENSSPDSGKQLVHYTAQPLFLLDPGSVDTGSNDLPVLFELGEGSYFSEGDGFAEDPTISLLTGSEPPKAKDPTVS
Experiment: cross-linking
Details: remark: other sources report otherwise

B1: heat shock factor 1, Q00613 1-529 (natural protein)
chain: T1 chain
B1 gave a stoichiometry N of 3.
